Test results published in the DeepSol protein solubility set.

assay: soluble on expression in E. coli; label from the status in PepcDB or PDB records

Sequence | soluble on expression in E. coli
AWFDWPVHRVYVNIGKTRRFHQHYYRRDVGSHVWQHNPVHRRGVAYRDRKTSDFYGKRPPRMAPVRPETRGYPGKFPGRPESRQQQPARERRDVPGAPQTGKGPGQVPRRDSTVAPQAQPPQREQVQKPARRDTPFQGVGEGSFERRAIKRGESSIRSVTPAPQGGGRGGWSGQRAPSGGGRGGGEMRMPGGGGGGGRGGGKKEFR | not soluble
AWQAAVASNEPFGEAQLAQRIRRYLPEQGQLFVGNSLVVRLIDALAQLPAGYPVYSNRGASGIDGLIATAAGVQRASARPTLAIVGDLSALYDLNSLALLRQASAPLVLIVVNNNGGQIFSMLPTPQDERRQFYLMPQDVDFSHAAVMFGLAYHRPDDWPSLDEALAGAWRRAGATVIELAVNETDG | not soluble
CATGTRQSPINIQWKDSVYDPQLAPLRVSYDAASCRYLWNTGYAFQVEFDDSCEDSGISGGPLGNHYRLKQFHFHWGATDEWGSEHAVDGHTYPAELHLVHWNSTKYENCKKASVGENGLAVIGVFLKLGAHHQALQKLVDVLPEVRHKDTQVAMGPFDPSCLMPACRDYWTYPGSLTTPPLAESVTWIVQKTPVEVSPSQLSMFRTLLFSGRGEEEDVMVNNYRPLQPLRDRKLRSSFRLDRTKMRS | soluble
CEEPPTFEAMELIGKPKPYYEIGERVDYKCKKGYFYIPPLATHTICDRNHTWLPVSDDACYRETCPYIRDPLNGQAVPANGTYEFGYQMHFICNEGYYLIGEEILYCELKGSVAIWSGKPPICEKV | soluble
CILRFIACNGQTRAVQSRGDYQKTLAIALKKFSLEDASKFIVCVSQSSRIKLITEEEFKQICFNSSSPERDRLIIVPKEKPCPSFEDLRRSWEIELAQPAALSSQSSLSP | soluble
CKLCLGEYPVEQMTTIAQCQCIFCTLCLKQYVELLIKEGLETAISCPDAACPKQGHLQENEIECMVAAEIMQRYKKLQFER | soluble
CPDRWMKYGNHCYYFSVEEKDWNSSLEFCLARDSHLLVITDNQEMSLLQVFLSEAFSWIGLRNNSGWRWEDGSPLNFSRISSNSFVQTCGAINKNGLQASSCEVPLHWVCKK | soluble
CYVDTNNDGAYEGDELSGTMEYKLILNGKTLKGETTTCAVDAATAEKVFKQYANDNGVDGEWTYDDATKTFTVTE | soluble
DAMNVMPVLAEIRERKAAHRAGMPSHVINFTLLPMNAVDMAHLQATLGNGPIQLHSRGYGSCRVLATATRDVWSVQFLNAMDTMILDTLEIGDVPAAACAADEDFSDSAERLGEIIEAYFE | not soluble
DAQTRRRERRAEKQAQWKAANPLLVGVSAKPVNRP | soluble
DDEEDEGSTIARHFHELWDMANKQDVLELILEQDIQVEEPAIFSKAIINFKADLAKKTLGPRGREVLNRLMPKVFDAVFAHPDAQFGLPRVLHLLHNICTRTTYLELLDEHPAALVQLVRLCTASPMISEQLSRYPILLDELIDPQQLYNPIPLDSYRTELRDFLARIPEDDMEQQMEALRQFKQICILRIAAADIAGVLPVMKVSDHLTYLAEAIVEAVVSQAWLQVSEKYGEPTHVKDREGKGFAVIGYGKVGGWELGYNSDLDIVFMHDCPVNVYTDGKKEIDGRQFYLRLAQRIIHIFSTRTASGILYEVDTRLRPSGASGLLVSPTDAFDDYQHQDAWTWEHQALVRARMIYGDEPLAIAFHNTRHDVLCKPRDEQTLKKEVVEMREKMRDHLGGKKSGRFMIKQDVGGITDIEFLAQYLVLNYSHEKPKLTRWCDNVRIYETLIAQGVMEEDQAMQLIRAYTAMRNEIHHRNLLNLDADVVEDKFVAEREWVKQAWNQWFA | soluble
DEICKNQYLYRINQENYVLFSFDIFDTLISRNIAKPSAVFLIMKQKMRNMDFPLNLVKNFDRIRVEVEQYYYRNVCKNKYEDTNFDEIYNLLQQNFSLSFQQKEELMKLEINTEKETLYPIKKNIELVEELIKNEKRVVLISDMYFSSSIIRTFLNKFSPIFNNIPIYMSSEFRLKKNSGNLFKAILNLEKVDPKKWIHCGDNWVGDYLKPSNLEISTNFYINQLLPYEEFALNRNSLDMDLQKIIGISKKIR | not soluble
DESATSYANSAIAIELDGDQYVARIKDPLADHAKYTEAFHAVGLDIDLRLVPASPTAVGKFLSVRWSKSSGAGPARSASGGSLPTLKFTPENCGEPNQAGCELTMRVPADYTGNMSLSLGRRAEPGEEYKNPDWATAPGEMFGGVQLQDGRPVDAMLAEARRRDLTVEFSRIRPDAETGALSFEPLSADQVRGDWTVWHAWQVKAGVIRLLVTPERLPENPFEKGARPPS | not soluble
DEYARDTKVEWREWGTAPFEDAAESGKPVLLALTVPWSAECRAMDRGTYGEPRIAANINDGFVPVRVDADRNPRVRERYTMGGFPSTVFLTPEGEVITGATFLGPDGFRGILDSVRESWDAQ | not soluble
DIESGLYALIGLFATSKTIDLVQVGLNQSKTVFIISENQEAIRQAILFKIDRGITRLSAKGGYTEDDKQILLCVIAQSEFSRLKEVIKEIDPEAFVVVMSASEVMGEGFTS | not soluble
DLILPFYKAGKVSFYQGDLDVLINFLEPDVLVNAANGDLRHVGGVARAIDVFTGGKLTKRSKEYLKSSKAIAPGNAVLFENVLEHLSVLNAVGPRNGDSRVEGKLCNVYKAIAKCDGKILTPLISVGIFKVKLEVSLQCLLKTVTDRDLNVFVYTDQERVTIENFFNG | soluble
DLTIDNGPEKGDLLVLGWGSTYGAIKKAVEQAREGGLDVAHAHLRYINPFPKNLGAMLGNFKKVLIPENNCGQLLSLIRDKFLIEPVGFSKVQGLPFNEMEIEEKITDILKEL | not soluble
DMGESVKIIDLARQMITLSGLKPNTPEQPDGDIEILITGLRPGEKLYEELLIGDNVRKTGHPRIMTANETMLPWHELSALLDRIRAACDRYDQQAIRT | not soluble
DMSKVNLEVIKPWITKRVTEILGFEDDVVIEFIFNQLEVKNPDSKMMQINLTGFLNGKNAREFMGELWPLLLSAQENIAGIPSAFLELKK | not soluble
DNMFCNKEYCNRLKDENNCISNLQVEDQGNCDTSWIFASKYHLETIRCMKGYEPTKISALYVANCYKGEHKDRCDEGSSPMEFLQIIEDYGFLPAESNYPYNYVKVGEQCPKVEDHWMNLWDNGKILHNKNEPNSLDGKGYTAYESERFHDNMDAFVKIIKTEVMNKGSVIAYIKAENVMGYEFSGKKVKNLCGDDTADHAVNIVGYGNYVNSEGEKKSYWIVRNSWGPYWGDEGYFKVDMYGPTHCHFNFIHSVVIFNVDLPMN | soluble
DPAVTYYRLEEVAKRNTAEETWMVIHGRVYDITRFLSEHPGGEEILLEQAGADATESFEDIGHSPDAREMLKQYYIGDVHPNDLKP | soluble
DPSVFSLPDSKLPGDKEFVPWQQDLDDSVKPTQQARPTVIRWSEGGKEVFISGSFNNWSTKIPLIKSHNDFVAILDLPEGEHQYKFFVDGQWVHDPSEPVVTSQLGTINNLIHVKKSDFEVFDALKLDSMESSETSCRV | not soluble
DQLPGPVRVTVAGGGSARSAGESGFRRGGGRGARRGSDGGASDDDDDDGGGSGGGGGGRGFSTQGAGAKGGGSSGGSVQGIFHVKPYLEGRKCIDHGGEMVSRSAFERAGGSMMAKWYRSIKVLPEGVSLGKWLVSNGLP | not soluble
DQPGHYVGTDPNLGALSAFLAGETEEVPDANEIMPVLWDMVTTGVAQGESARAVRTAFVSNPSAALTGLSESLVPAEKQPGRVVESGLVRAKFTASNDESGSSHHRAPWIAVLELLGSLDAMTDQSGKPIELETDAPAPAGKKLSEGVVAKRALLAEIKELAGENAVAIVKTARDTTLDTACIDQSTVAIAGMAKAQQEALLEMFFSRSKIVPGLIMDDGNRLLAVFETFNKRVELNELLASEGLIKSAVTLLRTLRSTDKNLYSLARIRFDKLDGVDTNAPENMWSLTPVVSLVLALAARMHAHGFISSNKTLDSATPGWAKLADIVPDLVTGDLIAADAIILAMKKPGIA | not soluble
DRCYNCGGLDHHAKECKLPPQPKKCHFCQSISHMVASCPLKAQQGPSAQG | soluble
DSKDTRQFVKSIAKDAHRIGQDNDIYASVMIAQAILESDSGRSALAKSPNHNLFGIKGAFEGNSVPFNTLEADGNKLYSINAGFRKYPSTKESLKDYSDLIKNGIDGNRTIYKPTWKSEADSYKDATSHLSKTYATDPNYAKKLNSIIKHYQL | not soluble
